Reference: patent publication US5463022A, “N-acetylcarboxymethylchitosan derivatives and process for preparation thereof” (priority 1990, dated 1995)

Legend:
[1] = Plasma concentration of 3H-labeled complexes in tumor-bearing rats (AUC); assay type: in vivo, female Wistar rats; details: 10 mg/Kg; for AUCo-oo in Plasma: carotids; for increase of retention in blood compared with the referential complexes (AUC): ratio to referential complexes
Experimental: Thus, the complexes which were obtained as the final products of Examples 17, 18 and 19 above and had the polyethylene glycol (PEG) contents of 6%, 21% and 43%, respectively, and of which the MTX portions were labelled with ^3 H, were prepared and employed as the ^3 H-labeled test compounds for use as Test Samples 1, 2 and 3. Further, the complexes same as those above-mentioned complexes except that the PEG portion was eliminated therefrom and the MTX portion was ^3 H-labeled, were also prepared and used as referential ^3 H-labeled compounds. In each of the complexes used as Test Samples 1, 2 and 3 and the complexes used as the referential complexes, the peptide chain which was bonded to the 2-amino group of the carboxymethylglucosamine unit of these tested complexes was Gly-Phe-Phe. The PEG portion present in the complexes as Test Samples 1, 2 and 3 was the PEG1 (molecular weight: 5,000) as described in Example 17.
In the following experiment, there were employed such tumor-bearing female Wistar rats which had received the subcutaneous transplantation of cancer cells, Walker 256, to an inguinal part and subsequently had been raised for 6 days. Each solution of the test sample was prepared for administration, by suitably diluting the ^3 H-labeled test sample complex with a solution of a corresponding non-radioactively labeled complex in physiological saline. Using three rats per group, the solution of the test sample was administered into the carotids of rats at a dose of 10 mg/Kg of the complex.
Under ether anesthesia, blood was sampled from the carotid of rats periodically at the ends of 30 minutes, 1 hour, 2 hours, 4 hours and 6 hours after the administration, and the blood was centrifuged to separate the plasma. Upon elapsed time of 24 hours after the administration, blood was collected from rats under ether enesthesia until the rats were sacrificed under exsanguination. Several tissues and organs were separated from the sacrificed rats. After weighing the whole or some parts of the tissues and organs, their radioactivities were measured.
The radioactivity of the tissues separated was measured in the following manner. After each sample of tissue was collected in a combustion cone and was dried, the sample was combusted in an automatic sample-combusting apparatus ("ASC-113", ALOKA). The resulting ^3 H2 O was added to a scintillator ("AQUASOL-2", NEN) and then measured by liquid scintillation counter ("LSC-3600", ALOKA). The value of radioactivity so measured was calibrated by the external standard radiation source method.
The test results are presented in FIG. 29 and FIG. 30 of the accompanying drawings as well as in Table 1 given hereinafter. FIG. 29 is a graph showing time-dependent variations in the concentration of each sample complex present in the plasma as measured up to the end of 24 hours after the administration of the complex. FIG. 30 is a graph showing the distributions of each sample complex present in tissues of the rat body which are expressed as the concentration of the complex in term of the percentages on the basis of the dose of the complex.

Walker 256 = assay: Concentration of 3H-labeled complexes in tumor (Walker 256) of rats; assay type: in vivo, female Wistar rats; details: 10 mg/Kg, carotids, 1440 min
Experimental: The radioactivity of the tissues separated was measured in the following manner. […] The resulting ^3 H2 O was added to a scintillator ("AQUASOL-2", NEN) and then measured by liquid scintillation counter ("LSC-3600", ALOKA). The value of radioactivity so measured was calibrated by the external standard radiation source method.

Sarcoma 180 = assay: Concentration of 3H-labeled compound in cancer tissue (Sarcoma 180) of mice; assay type: in vivo, male ICR mice; details: 20 mg/Kg, caudal vein, up to 24 hours, FIG. 19
From the text: (§1) The N-acetylcarboxymethylchitosan--Gly-Gly-Gly--MTX complex of Example 2, in which the MTX portion had been ^3 H-labeled, was used as a test sample compound. In addition, an ^3 H-labeled product of the partially N-acetylated carboxymethylchitosan as obtained in the course of the process of Example 1 was employed as a referential sample.
(§2) In the following experiment, there were employed tumor-bearing male ICR mice which had received subcutaneous implantation of Sarcoma 180 and subsequently had been raised for 10 days. The test sample compound was dissolved in physiological saline. Using three mice per group, the solution of the test sample compound was administered at a dose of 20 mg/Kg through the caudal vein. At the ends of 15 minutes, 30 minutes, 1 hour, 2 hours, 6 hours and 24 hours after the administration, the femoral artery and femoral vein of the mice of the respective groups were cut to collect blood samples. The radioactivity of a serum sample, which had been obtained by centrifuging each of the blood samples, and the radioactivity of a cancer tissue taken from the corresponding mouse were measured by the combustion method. In this way, the concentrations of the test sample compound present in the serum and the cancer tissue were evaluated.
(§3) The test results are plotted in FIGS. 18 and 19 of the accompanying drawings. […]

[2] = Serum concentration of 3H-labeled compound after i.v. administration in tumor-bearing mice; assay type: in vivo, male ICR mice; details: 20 mg/Kg, caudal vein, 15 minutes to 24 hours, FIG. 18
From the text: as §1, §2, §3

Substance	AUCo-oo in Plasma [1]	increase of retention in blood compared with the referential complexes (AUC) [1]	Concentration of Sample in Tumor at end of 24 hrs (Walker 256)	concentration in cancer tissue versus simple polysaccharide (Sarcoma 180)	retention in blood versus simple polysaccharide referential sample [2]
N-acetylcarboxymethylchitosan-(PEG1)--Gly-Phe-Phe--MTX [Test Sample 3]	45.52 % of dose · hr/ml	about 3 times	0.44 % of dose/g	–	–
N-acetylcarboxymethylchitosan-(PEG1)--Gly-Phe-Phe--MTX [Test Sample 1]	20.85 % of dose · hr/ml	about 1.3 times	0.22 % of dose/g	–	–
N-acetylcarboxymethylchitosan-(PEG1)--Gly-Phe-Phe--MTX [Test Sample 2]	46.20 % of dose · hr/ml	about 3 times	0.35 % of dose/g	–	–
N-acetylcarboxymethylchitosan--Gly-Gly-Gly--MTX [Example 2]	–	–	–	can concentrate in a cancer tissue	comparable to or longer than the retention of the simple polysaccharide
